Source: patent US20250236682A1 (CENTENAIRE BIOSCIENCES, published 2025)

What was measured:
[1] = target: T1, human HER2 recombinant protein (R&D systems, 1129-ER) (human, UniProt P04626 23-652); test: BLI, HER2 on HIS1K sensor
T1 construct: extracellular domain; also called HER2 antigen; HER2 extracellular domain (ECD)

[2] = target: T2, human FcγRIIIA (176V isoform, R&D systems, 4325-FC) (human, UniProt P08637 17-208); test: BLI, His-FcγRIIIA on HIS1K sensor
T2 construct: bought; also called FcγRIIIA(CD16A, 176V); Fcγ receptor 3A (176V isoform)
T2 sequence (P08637 17-208 F176V limits assumed): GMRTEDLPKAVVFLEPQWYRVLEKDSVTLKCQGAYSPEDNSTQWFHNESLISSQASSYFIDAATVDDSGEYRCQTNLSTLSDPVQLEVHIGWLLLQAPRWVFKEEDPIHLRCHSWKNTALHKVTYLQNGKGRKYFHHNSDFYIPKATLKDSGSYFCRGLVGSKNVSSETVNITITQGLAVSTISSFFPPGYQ

[3] = target: T1, human HER2 recombinant protein (R&D …); test: BLI, HER2 on HIS1K sensor, 1 to 32 nM antibody
[4] = target: T3, human FcγRI (R&D systems, 1257-FC) (human, UniProt P12314 16-288); test: BLI, His-FcγRI on HIS1K sensor
T3 construct: bought; also called FcγRI(CD64); Fcγ receptor 1
T3 sequence (P12314 16-288 limits assumed): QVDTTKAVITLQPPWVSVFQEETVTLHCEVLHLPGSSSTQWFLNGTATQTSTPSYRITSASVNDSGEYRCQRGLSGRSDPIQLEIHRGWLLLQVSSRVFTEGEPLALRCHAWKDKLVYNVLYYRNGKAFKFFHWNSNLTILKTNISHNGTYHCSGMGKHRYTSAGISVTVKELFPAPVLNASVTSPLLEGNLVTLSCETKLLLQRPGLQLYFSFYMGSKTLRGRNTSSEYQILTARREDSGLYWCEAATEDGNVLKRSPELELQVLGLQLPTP

[5] = target: T4, neonatal Fc receptor (FcRn) (Homo sapiens (Human), UniProt P55899 24-297; P61769 21-119); test: BLI, antibody on FAB2G sensor, FcRn analyte, pH 6.0
T4 construct: analyte in solution at pH 6.0; copies: 1 + 1
T4 sequence (P55899 24-297 limits assumed, form in doubt, chain 1 of 2): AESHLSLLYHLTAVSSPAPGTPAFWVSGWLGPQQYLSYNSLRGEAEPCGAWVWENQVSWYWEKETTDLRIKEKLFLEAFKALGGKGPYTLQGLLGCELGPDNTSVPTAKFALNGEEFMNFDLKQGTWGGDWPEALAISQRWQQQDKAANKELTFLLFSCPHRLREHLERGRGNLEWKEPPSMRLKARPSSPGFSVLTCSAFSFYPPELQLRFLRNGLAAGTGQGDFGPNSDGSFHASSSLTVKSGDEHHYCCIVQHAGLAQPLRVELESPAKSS
T4 sequence (P61769 21-119 limits assumed, form in doubt, chain 2 of 2): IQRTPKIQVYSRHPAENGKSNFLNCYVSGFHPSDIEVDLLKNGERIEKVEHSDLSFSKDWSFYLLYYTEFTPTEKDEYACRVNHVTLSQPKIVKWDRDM

B1: H01Fv1 (antibody, human IgG1)
heavy: not shown
light: not shown
chain: DKTHTCPPCPAPELLGGPSVFLFPPKPKDTLMISRTPEVTCVVVDVSHEDPEVKFNWYVDGVEVHNAKTKPREEQYNSTYRVVSVLTVLHQDWLNGKEYKCKVSNKALPAPIEKTISKAKGQPREPQVCTLPPSREEMTKNQVSLSCAVKGFYPSDIAVEWESNGQPENNYKTTPPVLDSDGSFFLVSKLTVDKSRWQQGNVFSCSVMHEALHNRFTQKSLSLSPGK
notes: also called Fv-(Fc)2, VH G44C / VL Q100C
Kd [1]: 0.244 nM | koff [1]: 5.11e-05 s⁻¹ | kon [1]: 210000 M⁻¹ s⁻¹

B2: H01Fv2 (antibody, human IgG1)
heavy: not shown
light: not shown
chain: DKTHTCPPCPAPELLGGPSVFLFPPKPKDTLMISRTPEVTCVVVDVSHEDPEVKFNWYVDGVEVHNAKTKPREEQYNSTYRVVSVLTVLHQDWLNGKEYKCKVSNKALPAPIEKTISKAKGQPREPQVCTLPPSREEMTKNQVSLSCAVKGFYPSDIAVEWESNGQPENNYKTTPPVLDSDGSFFLVSKLTVDKSRWQQGNVFSCSVMHEALHNRFTQKSLSLSPGK
notes: also called Fv-(Fc)2, VH Q105C / VL A43C
Kd [1]: 0.324 nM | koff [1]: 3.78e-05 s⁻¹ | kon [1]: 117000 M⁻¹ s⁻¹

B3: H01Fv7 (antibody, human IgG1, kappa)
heavy: not shown
light: not shown
chain: DKTHTCPPCPAPELLGGPSVFLFPPKPKDTLMISRTPEVTCVVVDVSHEDPEVKFNWYVDGVEVHNAKTKPREEQYNSTYRVVSVLTVLHQDWLNGKEYKCKVSNKALPAPIEKTISKAKGQPREPQVCTLPPSREEMTKNQVSLSCAVKGFYPSDIAVEWESNGQPENNYKTTPPVLDSDGSFFLVSKLTVDKSRWQQGNVFSCSVMHEALHNRFTQKSLSLSPGK
notes: also called Fv-(Fc)2, VH G44C, Q105C, F126C / VL Q100C, A43C, S121C
Kd [1]: 0.279 nM | koff [1]: 7.7e-05 s⁻¹ | kon [1]: 276000 M⁻¹ s⁻¹

B4: H01Fv5 (antibody, human IgG1, kappa)
heavy: not shown
light: not shown
chain: DKTHTCPPCPAPELLGGPSVFLFPPKPKDTLMISRTPEVTCVVVDVSHEDPEVKFNWYVDGVEVHNAKTKPREEQYNSTYRVVSVLTVLHQDWLNGKEYKCKVSNKALPAPIEKTISKAKGQPREPQVCTLPPSREEMTKNQVSLSCAVKGFYPSDIAVEWESNGQPENNYKTTPPVLDSDGSFFLVSKLTVDKSRWQQGNVFSCSVMHEALHNRFTQKSLSLSPGK
notes: also called Fv-(Fc)2, VH G44C, F122C / VL Q100C, S121C
Kd [1]: 0.393 nM | koff [1]: 0.000107 s⁻¹ | kon [1]: 273000 M⁻¹ s⁻¹

B5: H01Fv6 (antibody, human IgG1, kappa)
heavy: not shown
light: not shown
chain: DKTHTCPPCPAPELLGGPSVFLFPPKPKDTLMISRTPEVTCVVVDVSHEDPEVKFNWYVDGVEVHNAKTKPREEQYNSTYRVVSVLTVLHQDWLNGKEYKCKVSNKALPAPIEKTISKAKGQPREPQVCTLPPSREEMTKNQVSLSCAVKGFYPSDIAVEWESNGQPENNYKTTPPVLDSDGSFFLVSKLTVDKSRWQQGNVFSCSVMHEALHNRFTQKSLSLSPGK
notes: also called Fv-(Fc)2, VH Q105C, F126C / VL A43C, S121C
Kd [1]: 0.0487 nM | koff [1]: 6.61e-06 s⁻¹ | kon [1]: 136000 M⁻¹ s⁻¹

B6: P01DE4 (antibody, human IgG1, kappa)
heavy: not shown
light: not shown
chain: DKTHTCPPCPAPELLGGPDVFLFPPKPKDTLMISRTPEVTCVVVDVSHEDPEVKFNWYVDGVEVHNAKTKPREEQYNSTYRVVSVLTVLHQDWLNGKEYKCKVSNKALPAPEEKTISKAKGQPREPQVCTLPPSREEMTKNQVSLSCAVKGFYPSDIAVEWESNGQPENNYKTTPPVLDSDGSFFLVSKLTVDKSRWQQGNVFSCSVMHEALHNHYTQKSLSLSPGK
notes: monovalent Fab-(Fc)2; also called P01 with S239D and I332E in all Fc chains
Kd [2]: 0.33 nM | koff [2]: 0.000159 s⁻¹ | kon [2]: 478000 M⁻¹ s⁻¹ | Kd [3]: 0.224 nM | koff [3]: 5.51e-05 s⁻¹ | kon [3]: 246000 M⁻¹ s⁻¹ | Kd [4]: 0.038 nM | koff [4]: 2.85e-05 s⁻¹ | kon [4]: 748000 M⁻¹ s⁻¹

B7: pertuzumab (antibody, V domains shown)
VH: EVQLVESGGGLVQPGGSLRLSCAASGFTFTDYTMDWVRQAPGKGLEWVADVNPNSGGSIYNQRFKGRFTLSVDRSKNTLYLQMNSLRAEDTAVYYCARNLGPSFYFDYWGQGTLVTVSS
VL: DIQMTQSPSSLSASVGDRVTITCKASQDVSIGVAWYQQKPGKAPKLLIYSASYRYTGVPSRFSGSGSGTDFTLTISSLQPEDFATYYCQQYYIYPYTFGQGTKVEIK
Kd [5]: 322 nM | koff [5]: 0.0154 s⁻¹ | kon [5]: 47900 M⁻¹ s⁻¹

B8: H01DE4 (antibody, human IgG1, kappa)
heavy: not shown
light: not shown
chain: DKTHTCPPCPAPELLGGPDVFLFPPKPKDTLMISRTPEVTCVVVDVSHEDPEVKFNWYVDGVEVHNAKTKPREEQYNSTYRVVSVLTVLHQDWLNGKEYKCKVSNKALPAPEEKTISKAKGQPREPQVCTLPPSREEMTKNQVSLSCAVKGFYPSDIAVEWESNGQPENNYKTTPPVLDSDGSFFLVSKLTVDKSRWQQGNVFSCSVMHEALHNHYTQKSLSLSPGK
notes: monovalent Fab-(Fc)2; also called H01 with S239D and I332E in all Fc chains
Kd [2]: 0.1 nM | koff [2]: 5.51e-05 s⁻¹ | kon [2]: 526000 M⁻¹ s⁻¹ | Kd [3]: 0.145 nM | koff [3]: 3.73e-05 s⁻¹ | kon [3]: 258000 M⁻¹ s⁻¹ | Kd [4]: 0.036 nM | koff [4]: 3.06e-05 s⁻¹ | kon [4]: 852000 M⁻¹ s⁻¹

B9: H01Fv4 (antibody, human IgG1)
heavy: not shown
light: not shown
chain: DKTHTCPPCPAPELLGGPSVFLFPPKPKDTLMISRTPEVTCVVVDVSHEDPEVKFNWYVDGVEVHNAKTKPREEQYNSTYRVVSVLTVLHQDWLNGKEYKCKVSNKALPAPIEKTISKAKGQPREPQVCTLPPSREEMTKNQVSLSCAVKGFYPSDIAVEWESNGQPENNYKTTPPVLDSDGSFFLVSKLTVDKSRWQQGNVFSCSVMHEALHNRFTQKSLSLSPGK
notes: also called Fv-(Fc)2, VH G44C, Q105C / VL Q100C, A43C
Kd [1]: 0.326 nM | koff [1]: 7.71e-05 s⁻¹ | kon [1]: 237000 M⁻¹ s⁻¹
